Laboratory results from patent US20060134087A1, “ITI-D1 Kunitz domain mutants as hNE inhibitors” (Dyax Corp., priority 1988, published 2006).

Key:
hNE [1] = target: T1, hNE (Homo sapiens, UniProt P08246); assay: Kinetic on-rate of inhibitors reacting with hNE (progressive inhibition); type: biochemical; conditions: for kon: [hNE] = 8.47 × 10^−10 molar; for koff: calculated from koff = KD × kon
T1 sequence (P08246 30-267): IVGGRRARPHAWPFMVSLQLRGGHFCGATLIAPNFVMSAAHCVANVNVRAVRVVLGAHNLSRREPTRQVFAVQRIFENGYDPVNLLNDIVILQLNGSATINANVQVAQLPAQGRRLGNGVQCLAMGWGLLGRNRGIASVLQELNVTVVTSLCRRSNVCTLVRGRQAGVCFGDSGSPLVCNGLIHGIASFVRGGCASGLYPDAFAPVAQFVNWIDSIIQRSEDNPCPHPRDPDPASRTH
Procedure: The kinetic on-rates for the inhibitors reacting with hNE (kon) were determined from measurements of progressive inhibition of substrate hydrolytic activity by hNE following addition of inhibitor. For these experiments, a known concentration of inhibitor was added to a solution of hNE (0.847 nM) and substrate (25 μM) in 2 ml of reaction buffer in a plastic fluorescence cuvette. The change in fluorescence was recorded continuously following addition of the inhibitor. […] The enzymatic rate at selected times following addition of the inhibitor was determined from the slope of the tangent to the fluorescence time course at that time.
The kinetic constant kon for EPI-HNE-2 reacting with hNE was determined as follows. EPI-HNE-2 at 1.3 nM was added to buffer containing 0.867 nM hNE (I:E=1.5:1) at time 0. Measured percent residual activity was recorded as a function of time after addition of inhibitor. A least-squares fit program was used to obtain the value of kon=4.0×10^6 M^−1s^−1.
The kinetic off rate, koff, is calculated from the measured values of Ki and kon as: […] The values from such measurements are included in Table 30. The EPI-HNE proteins are small, high affinity, fast acting inhibitors of hNE. B. Specificity.

hNE [2] = target: T1, hNE; assay: Storage stability of purified inhibitor stock solutions; type: physicochemical
Procedure: Residual ammonium sulfate was removed from the EPI-HNE-2 preparation by ion exchange chromatography. The solution from the ammonium sulfate precipitation step was applied to a strong cation-exchange column (50 ml bed volume Macroprep 50S) (Bio-Rad Laboratories, Inc, Hercules, Calif.) previously equilibrated with 10 mM NaCitrate, pH=3.5. After loading, the column was washed with 300 ml of 10 mM NaCitrate, pH=3.5. EPI-HNE-2 was then batch-eluted from the column with 300 ml of 50 mM NH4OAc, pH=6.2. Fractions containing EPI-HNE-2 activity were pooled and the resulting solution was lyophilized. The dried protein powder was dissolved in 50 ml dH2O and the solution was passed through a 0.2μ filter (#4192, Gelman Sciences, Ann Arbor, Mich.). The concentration of the active inhibitor in the final stock solution was determined to be 2 mM (13.5 mg/ml).
The lyophilized protein powder was dissolved in 26 ml dH2O and the solution was passed through a 0.2μ filter (#4912, Gelman Sciences, Ann Arbor, Mich.). […] EPI-HNE-3 stored in water solution (without any buffering) deteriorated when kept at 4° C.

Row | kon (hNE [1]) | koff (hNE [1]) | Substance | activity after storage (hNE [2]; stock solution 2 mM, 4° C. and −70° C., more than 11 months) | activity after storage (hNE [2]; stock solution 250 μM, −70° C., more than six months) | material active after storage (hNE [2]; water solution without buffering, 4° C., five months)
1 | 4.0 10^6/M/s | 20. 10^−6/s | EPI-HNE-2: EPI-HNE-1 with four additional residues EAEA at the amino terminus, SEQ ID NO 008 | no loss in activity | – | –
2 | 8.0 10^6/M/s | 50. 10^−6/s | EPI-HNE-3: ITI-D2(3-58) with R15I, I18F, Q19P, L20R; SEQ ID NO 026 (AACNLPIVRGPCIAFFPRWAFDAVKGKCVLFPYGGCQGNGNKFYSEKECREYCGVP; Epi-HNE-3) | – | no loss of activity | about 70%
